Test results from patent publication US20130064834A1 (published 2013).

T1: his-tagged Syrian golden hamster (Mesocricetus auratus) PCSK9 (Syrian golden hamster (Mesocricetus …))
T1 construct: also called maPCSK9-h; maPCSK9
T1 chain: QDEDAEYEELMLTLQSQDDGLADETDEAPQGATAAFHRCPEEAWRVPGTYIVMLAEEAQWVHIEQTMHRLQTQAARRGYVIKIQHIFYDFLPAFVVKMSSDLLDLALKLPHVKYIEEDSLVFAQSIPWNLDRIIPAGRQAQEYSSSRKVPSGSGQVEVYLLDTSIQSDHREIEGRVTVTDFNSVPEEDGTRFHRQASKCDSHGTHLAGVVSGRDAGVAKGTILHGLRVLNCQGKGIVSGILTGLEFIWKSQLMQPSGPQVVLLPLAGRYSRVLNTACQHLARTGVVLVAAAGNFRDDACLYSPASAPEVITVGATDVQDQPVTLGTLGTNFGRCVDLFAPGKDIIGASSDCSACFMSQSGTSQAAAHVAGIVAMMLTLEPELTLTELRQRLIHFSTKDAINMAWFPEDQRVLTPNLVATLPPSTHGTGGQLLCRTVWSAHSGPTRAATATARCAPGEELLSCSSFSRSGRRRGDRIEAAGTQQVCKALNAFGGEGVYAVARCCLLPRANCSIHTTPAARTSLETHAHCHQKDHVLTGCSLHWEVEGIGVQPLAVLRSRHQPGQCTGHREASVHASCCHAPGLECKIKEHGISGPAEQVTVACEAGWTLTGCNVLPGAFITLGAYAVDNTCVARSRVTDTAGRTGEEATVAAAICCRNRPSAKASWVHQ

B1: H1H316P (antibody, V domains shown)
VH: EVQLVESGGGLVQPGGSLRLSCAASGFTFNNYAMNWVRQAPGKGLDWVSTISGSGGTTNYADSVKGRFIISRDSSKHTLYLQMNSLRAEDTAVYYCAKDSNWGNFDLWGRGTLVTVSS
VL: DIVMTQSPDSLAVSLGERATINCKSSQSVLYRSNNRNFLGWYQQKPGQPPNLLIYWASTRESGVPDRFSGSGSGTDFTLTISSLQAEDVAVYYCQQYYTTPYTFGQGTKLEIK
notes: Fully human mAb made in CHO cells; also called mAb316P
B2: H1M300N (antibody, V domains shown)
VH: EMQLVESGGGLVQPGGSLRLSCAASGFTFSSHWMKWVRQAPGKGLEWVANINQDGSEKYYVDSVKGRFTISRDNAKNSLFLQMNSLRAEDTAVYYCARDIVLMVYDMDYYYYGMDVWGQGTTVTVSS
VL: not shown
notes: Fully human version made in CHO cells

Experiments:
hPCSK9(P70A, S147F) = hPCSK9(P70A, S147F) (human, UniProt Q8NBP7 31-692); assay: SPR, mAb captured, 25C;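 note: antibodies held on a sensor chip bearing chemically coupled F(ab′)2 anti-human IgG as the capture surface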
From the text: (§1) Each selected antibody was captured on a F(ab′)2 anti-hIgG surface created through direct chemical coupling to a BIACORE™ chip to form a captured antibody surface.

hPCSK9(S147F) = target: T2, hPCSK9(S147F) (human, UniProt Q8NBP7 31-692); assay: SPR, mAb captured, 25C;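 note: antibodies held on a sensor chip bearing chemically coupled F(ab′)2 anti-human IgG as the capture surface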
T2 construct: mmh-tagged variant hPCSK9
From the text: as §1

hPCSK9(R194E) = target: T3, hPCSK9(R194E) (human, UniProt Q8NBP7 31-692); assay: SPR, mAb captured, 25C;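 note: antibodies held on a sensor chip bearing chemically coupled F(ab′)2 anti-human IgG as the capture surface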
T3 construct: mmh-tagged variant hPCSK9
From the text: as §1

hPCSK9(R215E) = target: T4, hPCSK9(R215E) (human, UniProt Q8NBP7 31-692); assay: SPR, mAb captured, 25C;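 note: antibodies held on a sensor chip bearing chemically coupled F(ab′)2 anti-human IgG as the capture surface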
T4 construct: mmh-tagged variant hPCSK9
From the text: as §1

hPCSK9(D343R) = target: T5, hPCSK9(D343R) (human, UniProt Q8NBP7 31-692); assay: SPR, mAb captured, 25C
T5 construct: mmh-tagged variant hPCSK9
From the text: as §1

hPCSK9(V380M) = target: T6, hPCSK9(V380M) (human, UniProt Q8NBP7 31-692); assay: SPR, mAb captured, 25C
T6 construct: mmh-tagged variant hPCSK9
From the text: as §1

Human PCSK9-myc-myc-his [1] = target: T7, Human PCSK9-myc-myc-his (human, UniProt Q8NBP7 31-692); assay: competition ELISA vs EGF-A, pH 5.5
T7 construct: also called hPCSK9-mmh; hPCSK9
Method: (§2) Briefly, hLDLR-ecto, hLDLR EGF-A-hFc or hLDLR EGF-AB-hFc, each at 2 μg/ml, was coated on a 96-well plate in PBS buffer overnight at 4° C., and nonspecific binding sites blocked with BSA. […] The equilibrated sample solutions were transferred to receptor or receptor fragment coated plates.

[2] = target: T8, tagged rhesus monkey (Macaca mulata) PCSK9 (rhesus monkey (Macaca mulata), UniProt A8T666 31-692); assay: competition ELISA vs EGF-A, pH 5.5
T8 construct: also called mmPCSK9-mmh; mmPCSK9
T8 sequence (A8T666 31-692 limits assumed): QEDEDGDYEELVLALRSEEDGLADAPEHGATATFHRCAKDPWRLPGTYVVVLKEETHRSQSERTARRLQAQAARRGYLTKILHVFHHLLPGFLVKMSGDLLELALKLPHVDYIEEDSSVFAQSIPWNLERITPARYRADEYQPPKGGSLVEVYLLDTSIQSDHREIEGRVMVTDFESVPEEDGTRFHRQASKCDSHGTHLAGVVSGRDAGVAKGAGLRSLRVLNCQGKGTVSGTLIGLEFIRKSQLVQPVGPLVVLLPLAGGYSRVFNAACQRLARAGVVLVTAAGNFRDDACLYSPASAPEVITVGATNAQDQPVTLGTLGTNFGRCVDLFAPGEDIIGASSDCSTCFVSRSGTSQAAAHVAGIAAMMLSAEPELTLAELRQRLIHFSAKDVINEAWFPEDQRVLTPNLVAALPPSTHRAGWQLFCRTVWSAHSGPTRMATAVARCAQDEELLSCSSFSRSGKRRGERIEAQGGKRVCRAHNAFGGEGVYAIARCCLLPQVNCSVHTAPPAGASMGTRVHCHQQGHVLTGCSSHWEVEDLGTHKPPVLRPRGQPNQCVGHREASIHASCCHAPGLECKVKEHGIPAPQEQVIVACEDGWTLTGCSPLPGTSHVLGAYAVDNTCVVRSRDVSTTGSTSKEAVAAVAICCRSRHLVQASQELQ
Method: as §2

[3] = target: T1, his-tagged Syrian golden hamster …; assay: competition ELISA vs EGF-A, pH 5.5
Method: as §2

Human PCSK9-myc-myc-his [4] = target: T7, Human PCSK9-myc-myc-his; assay: SPR, mAb amine-coupled, 25C, pH 7.4
From the text: (§3) Briefly, mAbs were immobilized onto BIACORE™ CM5 sensor chips via amine coupling.

hPCSK9(D374Y)-mmh [5] = target: T9, hPCSK9(D374Y)-mmh (human, UniProt Q8NBP7 31-692); assay: SPR, mAb amine-coupled, 25C, pH 7.4
T9 construct: also called hPCSK(D374Y)-mmh
From the text: as §3

[6] = target: T10, cynomolgus monkey (Macaca fascicularis) PCSK9, myc-myc-his tagged (cynomolgus monkey (Macaca fascicularis), UniProt A8T662 31-692 (Macaca nemestrina entry), limits assumed); assay: SPR, mAb amine-coupled, 25C, pH 7.4
T10 construct: also called mfPCSK9-mmh; mfPCSK9
T10 sequence (A8T662 31-692 limits assumed): as the sequence (A8T666 31-692 limits assumed) above, with P607A, K639E counted along it
From the text: as §3

Human PCSK9-myc-myc-his [7] = target: T7, Human PCSK9-myc-myc-his; assay: SPR, mAb amine-coupled, 37C, pH 5.5
From the text: as §3

hPCSK9(D374Y)-mmh [8] = target: T9, hPCSK9(D374Y)-mmh; assay: SPR, mAb amine-coupled, 37C, pH 5.5
From the text: as §3

[9] = target: T10, cynomolgus monkey (Macaca fascicularis) …; assay: SPR, mAb amine-coupled, 37C, pH 5.5
From the text: as §3

Human PCSK9-myc-myc-his [10] = target: T7, Human PCSK9-myc-myc-his; assay: SPR, mAb amine-coupled, 37C, pH 7.4
From the text: as §3

hPCSK9(D374Y)-mmh [11] = target: T9, hPCSK9(D374Y)-mmh; assay: SPR, mAb amine-coupled, 37C, pH 7.4
From the text: as §3

[12] = target: T10, cynomolgus monkey (Macaca fascicularis) …; assay: SPR, mAb amine-coupled, 37C, pH 7.4
From the text: as §3

Human PCSK9-myc-myc-his [13] = target: T7, Human PCSK9-myc-myc-his; assay: competition ELISA vs EGF-AB-hFc, pH 5.5
Method: as §2

Human PCSK9-myc-myc-his [14] = target: T7, Human PCSK9-myc-myc-his; assay: competition ELISA vs hLDLR-ecto, pH 5.5
Method: as §2

hPCSK9(D374Y)-mmh [15] = target: T9, hPCSK9(D374Y)-mmh; assay: competition ELISA vs EGF-AB-hFc, pH 7.2
Method: as §2

[16] = target: T8, tagged rhesus monkey (Macaca mulata) …; assay: competition ELISA vs hLDLR-ecto, pH 7.2
Method: as §2

Row | Binder | Kd (hPCSK9(P70A, S147F)) [nM] | T1/2 (hPCSK9(P70A, S147F)) [min] | Kd (hPCSK9(S147F)) [nM] | T1/2 (hPCSK9(S147F)) [min] | Kd (hPCSK9(R194E)) [nM] | T1/2 (hPCSK9(R194E)) [min] | Kd (hPCSK9(R215E)) [nM] | Kd (hPCSK9(D343R)) [nM] | T1/2 (hPCSK9(D343R)) [min] | Kd (hPCSK9(V380M)) [nM] | T1/2 (hPCSK9(V380M)) [min] | IC50 (Human PCSK9-myc-myc-his [1]) [nM] | IC50 [2] [nM] | IC50 [3] [nM] | Kd (Human PCSK9-myc-myc-his [4]) [nM] | T1/2 (Human PCSK9-myc-myc-his [4]) [min] | Kd (hPCSK9(D374Y)-mmh [5]) [nM] | T1/2 (hPCSK9(D374Y)-mmh [5]) [min] | Kd [6] [nM] | T1/2 [6] [min] | further results
1 | B1 | 1.18 | 34 | 1.29 | 32 | 0.38 | 71 | 0.9 | 7.88 | 6 | 0.48 | 63 | < 0.125 | < 0.25 | 1.3 | 1.26 | 36 | 2.49 | 15 | 1.42 | 42 | T1/2 (hPCSK9(R215E)): 43 min; Kd (Human PCSK9-myc-myc-his [7]): 0.142 nM; T1/2 (Human PCSK9-myc-myc-his [7]): 11 min; Kd (hPCSK9(D374Y)-mmh [8]): 1.56 nM; T1/2 (hPCSK9(D374Y)-mmh [8]): 5 min; Kd [9]: 0.044 nM; T1/2 [9]: 5 min; Kd (Human PCSK9-myc-myc-his [10]): 4 nM; T1/2 (Human PCSK9-myc-myc-his [10]): 9 min; Kd (hPCSK9(D374Y)-mmh [11]): 6.66 nM; T1/2 (hPCSK9(D374Y)-mmh [11]): 4 min; Kd [12]: 3.77 nM; T1/2 [12]: 11 min; IC50 (Human PCSK9-myc-myc-his [13]): < 0.125 nM; IC50 (Human PCSK9-myc-myc-his [14]): < 0.125 nM; IC50 (hPCSK9(D374Y)-mmh [15]): 0.139 nM; IC50 [16]: < 0.25 nM
2 | B2 | 7.87 | 24 | 9.07 | 24 | 0.65 | 129 | 1.81 | 1.18 | 89 | 2.82 | 28 | 0.223 | 3.7 | > 100 | 1.1 | 76 | 1.31 | 46 | 2.17 | 31 | Kd (Human PCSK9-myc-myc-his [7]): 11.9 nM; T1/2 (Human PCSK9-myc-myc-his [7]): 1 min; Kd (hPCSK9(D374Y)-mmh [8]): 28 nM; T1/2 (hPCSK9(D374Y)-mmh [8]): 1 min; Kd [9]: 65.2 nM; T1/2 [9]: 0.1 min; Kd (Human PCSK9-myc-myc-his [10]): 2.47 nM; T1/2 (Human PCSK9-myc-myc-his [10]): 20 min; Kd (hPCSK9(D374Y)-mmh [11]): 2.61 nM; T1/2 (hPCSK9(D374Y)-mmh [11]): 14 min; Kd [12]: 4.81 nM; T1/2 [12]: 8 min; IC50 (Human PCSK9-myc-myc-his [13]): 0.447 nM; IC50 (Human PCSK9-myc-myc-his [14]): 1.49 nM; IC50 (hPCSK9(D374Y)-mmh [15]): 0.142 nM; IC50 [16]: 0.255 nM
